The assay has as its target Histone H3 (H3K9me3) (Homo sapiens, UniProt P68431). The assay can be described thus: fluorescence microscopy titration in fixed HEK293 cells (Hill1 fit).

Our source for the Kd values is publication PMC11368889 (2024).

Broadly, the Kd is a measure of binding affinity in units of concentration.

B1: MPP8-Green (MPP8-mNeonGreen-NLS-MPP8) 55-117 (protein)
chain: GEDVFEVEKILDMKTEGGKVLYKVRWKGYTSDDDTWEPEIHLEDCKEVLLEFRKKIAENKAKA
Regarding B1, the Kd worked out at 490 nM.
